Measured values reported in patent US20080050374A1 (AMBRX, published 2008).
Changes are numbered by the printed parent chain.

B1: pAcF-scFv-108-(S136) (scFv)
scFv: QVQLQQSGAELMKPGASVKISCKATGYTFSSYWIEWVKQRPGHGLEWIGEILPGSKKTNYNEKFKGKATFTADTSSNTAYMQFSSLTSEDSAVYYCARYYYRNDDYGMDYWGQGTSVTVSSGGGGSGGGGSGGGGXGGGGSEIHMTQTTSSLSASLGDRVTISCSASQDIRNYLNWYQQKPDGTVKLLIYYTSTLHSGVPSRFSGSGSGTDYSLTISNLEPEDIATYYCQQYSKIPYTFTGGTKLEIKRADAAEQKLISEEDLNSAVDHHHHHH
modifications: p-acetyl-phenylalanine (pAcF) in place of Ser136
notes: X stands for pAcF; also called Ser136pAcF; pAcF-scFv-(S136)
B2: pAcF-scFv-108-(S136) conjugated to 5K PEG (scFv)
scFv: B1 scFv
modifications: p-acetyl-phenylalanine (pAcF) in place of Ser136, conjugated to mono-functional hydroxylamine 5K PEG
notes: also called Ser136pAcF-5K PEG
B3: pAcF-scFv-108-(L156) (scFv)
scFv: B1 scFv with X136S, L156X
modifications: p-acetyl-phenylalanine (pAcF) in place of Leu156
notes: L156 lies in the VL chain; X stands for pAcF; also called Leu156pAcF
B4: scFv-108 Ser193pAcF (scFv)
scFv: B1 scFv with X136S, S193X
modifications: p-acetyl-phenylalanine (pAcF) in place of Ser193
notes: X stands for pAcF
B5: pAcF-scFv-108-(L156) conjugated to 5K PEG (scFv)
scFv: B1 scFv with X136S, L156X
modifications: p-acetyl-phenylalanine (pAcF) in place of Leu156, conjugated to mono-functional hydroxylamine 5K PEG
notes: also called Leu156pAcF-5K PEG
B6: scFv-108 Ser259pAcF (scFv)
scFv: B1 scFv with X136S, S259X
modifications: p-acetyl-phenylalanine (pAcF) in place of Ser259
notes: X stands for pAcF
B7: scFv-108 wild type (periplasmic, VH-(GGGGS)4-VL-myc-6xHis) (scFv)
scFv: B1 scFv with X136S
notes: also called WT scFv
B8: scFv-108 Tyr190pAcF (scFv)
scFv: B1 scFv with X136S, Y190X
modifications: p-acetyl-phenylalanine (pAcF) in place of Tyr190
notes: X stands for pAcF
B9: scFv-108 His144pAcF (scFv)
scFv: B1 scFv with X136S, H144X
modifications: p-acetyl-phenylalanine (pAcF) in place of His144
notes: X stands for pAcF
B10: scFv-108 Lys248pAcF (scFv)
scFv: B1 scFv with X136S, K248X
modifications: p-acetyl-phenylalanine (pAcF) in place of Lys248
notes: X stands for pAcF
B11: pAcF-scFv-108-(S131) (scFv)
scFv: B1 scFv with S131X, X136S
modifications: p-acetyl-phenylalanine (pAcF) in place of Ser131
notes: S131 is the second serine of the GlySer linker; X stands for pAcF; also called Ser131pAcF; S131Am
B12: pAcF-scFv-108-(S131) conjugated to 5K PEG (scFv)
scFv: B1 scFv with S131X, X136S
modifications: p-acetyl-phenylalanine (pAcF) in place of Ser131, conjugated to mono-functional hydroxylamine 5K PEG
notes: also called Ser131pAcF-5K PEG
B13: Fab-108 wild type (Fab)
light: TMELEIHMTQTTSSLSASLGDRVTISCSASQDIRNYLNWYQQKPDGTVKLLIYYTSTLHSGVPSRFSGSGSGTDYSLTISNLEPEDIATYYCQQYSKIPYTFTGGTKLEIKRADAAKLEIKRTVAAPSVFIFPPSDEQLKSGTASVVCLLNNFYPREAKVQWKVDNALQSGNSQESVTEQDSKDSTYSLSSTLTLSKADYEKHKVYACEVTHQGLSSPVTKSFNRGEC
heavy: QVQLLEQVQLQQSGAELMKPGASVKISCKATGYTFSSYWIEWVKQRPGHGLEWIGEILPGSKKTNYNEKFKGKATFTADTSSNTAYMQFSSLTSEDSAVYYCARYYYRNDDYGMDYWGQGTSVTVSSAGPSVFPLAPSSKSTSGGTAALGCLVKDYFPEPVTVSWNSGALTSGVHTFPAVLQSSGLYSLSSVVTVPSSSLGTQTYICNVNHKPSNTKVDKKVEPKSCDKHHHHHH
notes: they may include leaders; also called WT Fab; Fab108 WT

Assays:
[1] = target: T1, EGF receptor (on A431 cells) (UniProt P00533 25-1210, limits assumed); assay: competition flow cytometry on A431 cells against mAb-108 (7.5 nM)
T1 construct: whole, on cells; also called EGF receptors
Method: (§1) Unbound scFv proteins were removed by washing following centrifugation (repeated 2-3 times). […] After two washes, the cells were incubated with an APC-labeled (allophycocyanin) anti-mouse antibody (10 ug/ml) for 30 minutes on ice. After washing the cells two times to remove the secondary antibody, the cells were re-suspended in FACS buffer supplemented with propidium iodine (0.5 ug/ml), and analyzed by flow cytometry. […] Fab binding was detected using an anti-His antibody followed by an APC-labeled anti-mouse secondary antibody.
(§2) Cells were incubated with the scFv proteins at various concentrations after washing to remove unbound scFv's, and the cells were treated with the mAb108 as described above. All proteins were expressed in the periplasm. Table 11 summarizes the binding of the modified scFv's (pAcF and pAcF with PEG) relative to the wild type scFv: […]

[2] = target: T1, EGF receptor (on A431 cells); assay: Flow cytometry competition on A431 cells expressing EGF receptors: cells incubated with the scFv at varied concentration and washed, then mAb108 (competitor, 7.5 nM) detected with APC-labeled anti-mouse antibody; y axis Median
Method: as §1, §2

[3] = target: T1, EGF receptor (on A431 cells); assay: flow cytometry on A431 cells; Fab detected with anti-His antibody and APC-labeled anti-mouse antibody
Method: as §1
PEGylation of the Fab fragments results in a minimal decrease in the affinity of the fragments to the EGF receptors. Binding conditions were as described previously.

Binder | IC50 relative to wild type scFv [1] [x] | further results
B1 | 1.6 | IC50 [2]: 13.1 nM
B2 | 6.3 | IC50 [2]: 51 nM
B3 | 1.8 | 
B4 | 1.8 | 
B5 | 2.9 | 
B6 | 0.5 | 
B7 | 1 | IC50 [1]: 8.1 nM
B8 | 2.1 | 
B9 | 2.6 | 
B10 | 2.1 | 
B11 | 1.3 | 
B12 | 5 | 
B13 |  | EC50 [3]: 4 nM; EC50 relative to wild type Fab [3]: 1 x
